Results published in patent US20250313632A1.
Like-named read-outs stand apart in the source and are kept apart here.

Tests used:
[1] = target: human B7-H3 protein (human) (UniProt Q5ZPR3); test: Octet (BLI) epitope binning on captured human B7-H3; competitor 72D1D11
[2] = target: human B7-H3 protein (human) (UniProt Q5ZPR3); test: Octet (BLI) epitope binning on captured human B7-H3; competitor AHP05562
[3] = target: human B7-H3 protein (human) (UniProt Q5ZPR3); test: Octet (BLI) epitope binning on captured human B7-H3; competitor CA84D
[4] = target: human B7-H3 expressed on A375 tumor cells (human) (UniProt Q5ZPR3); test: flow cytometry on A375 cells, MFI(PE); unit from the axis Conc (nM)
[5] = target: human B7-H3 (4Ig) protein (his tag) (human) (UniProt Q5ZPR3); test: SPR (Biacore T200), antibody captured on Protein A chip, B7-H3 injected, 1:1 model
[6] = target: human B7-H3 protein (human) (UniProt Q5ZPR3); test: Octet (BLI) epitope binning on captured human B7-H3; competitor AHP06345
[7] = target: human B7-H3 expressed on A375 tumor cells (human) (UniProt Q5ZPR3); test: flow cytometry on A375 cells, MFI(PE); unit from the axis Conc (nM); remark: listed apart in the source

| Binder | inhibition ratio [1] | inhibition ratio [2] | inhibition ratio [3] | EC50 [4] | Kd [5] | koff [5] | kon [5] | inhibition ratio [6] | EC50 [7] |
| --- | --- | --- | --- | --- | --- | --- | --- | --- | --- |
| 72D1D11-z1 (antibody, V domains shown) VH: QVQLVQSGSELKKPGASVKVSCKASGYTFTNLGLNWVRQAPGQGLEWMGWINTAGGQPTYAEDFKGRFVFSLDTSVSTAYLQISSLKAEDTAVYYCARDDGYYYTMDYWGQGTTVTVSS VL: DIVMTQTPLSLPVTPGEPASISCRSSQSLVHSNGKTYLHWYLQKPGQSPQLLIYKVSNRFSGVPDRFSGSGSGTDFTLKISRVEAEDVGVYYCSQSTHVPWTFGGGTKLEIK | – | – | – | – | – | – | – | – | 630 pM |
| 72D1D11-z4 (antibody, V domains shown) VH: QVQLVQSGSELKKPGASVKVSCKASGYTFTNLGLNWVRQAPGQGLEWMGWINTAGGQPTYAEDFKGRFVFSLDTSVSTAYLQISSLKAEDTAVYYCARDDGYYYTMDYWGQGTTVTVSS VL: DIVMTQSPLSLPVTPGEPASISCRSSQSLVHSNGKTYLHWYLQKPGQSPQLLIYKVSNRFSGVPDRFSGSGSGTDFTLKISRVEAEDVGVYFCSQSTHVPWTFGGGTKLEIK | – | – | – | – | – | – | – | – | 490 pM |
| 72D1D11-z7 (antibody, V domains shown) VH: QVQLVQSGSELKKPGASVKVSCKASGYTFTNLGLNWVRQAPGQGLEWMGWINTAGGQPTYAEDFKGRCVFSLDTSVSTAYLQISSLKAEDTAVYYCARDDGYYYTMDYWGQGTTVTVSS VL: DIVMTQSPLSLPVTPGEPASISCRSSQSLVHSNGKTYLHWYLQKPGQSPQLLIYKVSNRFSGVPDRFSGSGSGTDFTLKISRVEAEDVGVYYCSQSTHVPWTFGGGTKLEIK | – | – | – | – | – | – | – | – | 520 pM |
| 72D1D11-z3p1 (antibody, V domains shown) VH: QVQLVQSGSELKKPGASVKVSCKASGYTFTNLGLNWVRQAPGQGLEWMGWINTAGGQPTYAEDFKGRFVFSLDTSVSTAYLQISSLKAEDTAVYYCARDDGYYYTMDYWGQGTTVTVSS VL: DIVMTQSPLSLPVTPGEPASISCRSSQSLVHSNAKTYLHWYLQKPGQSPQLLIYKVSNRFSGVPDRFSGSGSGTDFTLKISRVEAEDVGVYYCSQSTHVPWTFGGGTKLEIK | – | – | – | 360 pM | – | – | – | – | – |
| 72D1D11-z2 (antibody, V domains shown) VH: QVQLVQSGSELKKPGASVKVSCKASGYTFTNLGLNWVRQAPGQGLEWMGWINTAGGQPTYAEDFKGRFVFSLDTSVSTAYLQISSLKAEDTAVYYCARDDGYYYTMDYWGQGTTVTVSS VL: DIVMTQTPLSLPVTPGEPASISCRSSQSLVHSNGKTYLHWYLQKPGQSPQLLIYKVSNRFSGVPDRFSGSGSGTDFTLKISRVEAEDVGVYFCSQSTHVPWTFGGGTKLEIK | – | – | – | – | – | – | – | – | 520 pM |
| 72D1D11-z6 (antibody, V domains shown) VH: QVQLVQSGSELKKPGASVKVSCKASGYTFTNLGLNWVRQAPGQGLEWMGWINTAGGQPTYAEDFKGRCVFSLDTSVSTAYLQISSLKAEDTAVYYCARDDGYYYTMDYWGQGTTVTVSS VL: DIVMTQTPLSLPVTPGEPASISCRSSQSLVHSNGKTYLHWYLQKPGQSPQLLIYKVSNRFSGVPDRFSGSGSGTDFTLKISRVEAEDVGVYFCSQSTHVPWTFGGGTKLEIK | – | – | – | – | – | – | – | – | 540 pM |
| 72D1D11-z5 (antibody, V domains shown) VH: QVQLVQSGSELKKPGASVKVSCKASGYTFTNLGLNWVRQAPGQGLEWMGWINTAGGQPTYAEDFKGRCVFSLDTSVSTAYLQISSLKAEDTAVYYCARDDGYYYTMDYWGQGTTVTVSS VL: DIVMTQTPLSLPVTPGEPASISCRSSQSLVHSNGKTYLHWYLQKPGQSPQLLIYKVSNRFSGVPDRFSGSGSGTDFTLKISRVEAEDVGVYYCSQSTHVPWTFGGGTKLEIK | – | – | – | – | – | – | – | – | 510 pM |
| 72D1D11-z3p2 (antibody, V domains shown) VH: QVQLVQSGSELKKPGASVKVSCKASGYTFTNLGLNWVRQAPGQGLEWMGWINTAGGQPTYAEDFKGRFVFSLDTSVSTAYLQISSLKAEDTAVYYCARDDGYYYTMDYWGQGTTVTVSS VL: DIVMTQSPLSLPVTPGEPASISCRSSQSLVHSQGKTYLHWYLQKPGQSPQLLIYKVSNRFSGVPDRFSGSGSGTDFTLKISRVEAEDVGVYYCSQSTHVPWTFGGGTKLEIK | – | – | – | 300 pM | – | – | – | – | – |
| 62H9H5 (antibody, V domains shown) VH: QVQLQQSGAELAKPGASVKMSCKASGYTFTNYWIHWVKQRPGQGLEWIGYISPSTGYTEYNQKFKGKATLTAVKSSSTAFMQLSSLTSEDSAVYFCARGTGYWGQGTTLTVSS VL: DIQMTQSPASLSASVGESVTITCRASENIYSFFAWYQQKEGKSPQLLVYNAKTLEEGVPSRFSGSGSGTQFSLKINSLQPEDFGSYYCQHNYVSPFTFGSGTKLEIK | 95.5% | 90.2% | -6.07% | 42 pM | 464 pM | 0.00016 s⁻¹ | 346000 M⁻¹ s⁻¹ | -7.1% | – |

The remaining lines, values ahead:

| inhibition ratio [1] | inhibition ratio [2] | inhibition ratio [3] | EC50 [4] | Kd [5] | koff [5] | kon [5] | inhibition ratio [6] | EC50 [7] | Binder |
| --- | --- | --- | --- | --- | --- | --- | --- | --- | --- |
| -13.9% | 91.7% | -13.6% | 2400 pM | 738 pM | 0.00396 s⁻¹ | 5.37e+06 M⁻¹ s⁻¹ | -10.6% | – | AHP06358 (antibody, V domains shown) VH: EVQLVQSGAEVKKPGASVKVSCKASGYTFTSYGISWVRQAPGQGLEWMGWISAYNGNTNYAQKLQGRVTMTTDTSTSTAYMELRSLRSDDTAVYYCARDSPLQIAVAGYYYGMDVWGQGTTVTVSS VL: NFMLTQPHSVSESPGKTVTISCTRSSGSIVSGYVQWYQQRPGSAPSTVIYEHNQRPSGVPDRFSGSIDSSSNSASLTISGLRTEDEADYYCQSYDSRNMIFGGGTKLTVL |
| 96.8% | 89.6% | -15.8% | 100 pM | 476 pM | 0.000396 s⁻¹ | 833000 M⁻¹ s⁻¹ | -13% | – | 106A5B3 (antibody, V domains shown) VH: EVQLVESGGDLVKPGGSLKLSCAASGFTFSSYGMSWVRQTPDKRLEWVATISSGGSYIYYPDSMKGRFTISRDNAKNTLYLQMSSLQSEDTAIYYCASDYGSRYFDYWGQGTTLTVSS VL: QIVLTQSPAIMSASPGEKVTMTCSASSSVIYMSWYKQKPGSSPRLLIYDTSNLASGVPVRFSGSGSGTSYSLTISRMEAEDAATYYCQQWSSYPRTFGGGTKLEIK |
| 98% | 92.3% | 5.28% | 80 pM | 2490 pM | 0.000824 s⁻¹ | 331000 M⁻¹ s⁻¹ | 1.99% | – | 216E7A9 (antibody, V domains shown) VH: DVQLVESGGGLVQPGGSRKLSCAASGFTFSSFGMHWVRQAPEKGLEWVAYISSGSSTIYYADTVRGRFTISRDNPKNTLFLQMTSLRSEDTAMYYCARGGDYYYALDYWGQGTSVTVSS VL: DIQMTQSPASLSVSVGETVTITCRASENIHSNLEWYQQKQGKSPQLLVYAATNLADGVPSRFSGSGSGTQYSLKINSLQSEDFGSYYCQHFWGTPFTFGSGTKLEIK |
| – | – | – | – | – | – | – | – | 460 pM | 72D1D11-z8 (antibody, V domains shown) VH: QVQLVQSGSELKKPGASVKVSCKASGYTFTNLGLNWVRQAPGQGLEWMGWINTAGGQPTYAEDFKGRCVFSLDTSVSTAYLQISSLKAEDTAVYYCARDDGYYYTMDYWGQGTTVTVSS VL: DIVMTQSPLSLPVTPGEPASISCRSSQSLVHSNGKTYLHWYLQKPGQSPQLLIYKVSNRFSGVPDRFSGSGSGTDFTLKISRVEAEDVGVYFCSQSTHVPWTFGGGTKLEIK |
| 97.1% | 90% | -5.46% | 93 pM | 619 pM | 0.000368 s⁻¹ | 595000 M⁻¹ s⁻¹ | -5.22% | – | 227E12D1 (antibody, V domains shown) VH: EVKLVESGGGLVKPGGSLKLSCAASGFTFSSYGMSWVRQTPEKRLEWVATISGGGTYTYYPDSVKGRFTISRDNAKNNLYLQMSSLRSDDTALYYCARHEGLVMDYWGQGTSVTVSS VL: DIQMTQSPASLSASVGETVTITCRASENIYSYLAWYQQKQGKSPQLVVYNAKTLAEGVPSRFSGSGSGTQFSLKINSLQPEDFGTYYCQHHYGPPPYTFGGGTKLEIK |
| -5% | 90% | -12% | 87 pM | 2920 pM | 0.00135 s⁻¹ | 463000 M⁻¹ s⁻¹ | -7.53% | – | 294A3C4 (antibody, V domains shown) VH: QVQLQQPGAELVKPGASVKLSCKASGYTFTSYWMHWVKQRPGQGLEWIGMFHPNSGTTNYNEKFKSKATLTVDKSSSTAYMQLSSLTSEDSAVYYCARRLGIFFDYWGQGTTLTVSS VL: DIVMTQSPSSLTVTAGEKVTMSCRSSQSLLNSGNQKNYLTWYQQKPGQPPKLLIYWASTRDSGVPDRFTGSGSGTDFTLTISSVQTEDLAVYYCQTDYSYPFTFGSGTKLEIK |
| 96.6% | -22.2% | -9.58% | 220 pM | 837 pM | 0.000367 s⁻¹ | 438000 M⁻¹ s⁻¹ | -5.98% | – | 126C10B10 (antibody, V domains shown) VH: GVQLQQSGAELVKPGASVKLSCTGSGFNIKDPYIHWVKQRPEQGLEWIGRIDPANGNTKYGPRFQGRATMTADTSSNTANLQLSSLTSEDTAVYYCTTWNYYLSRGFDYWGQGTTLTVSS VL: QIVLTQSPAIMSASPGEKVTMTCSARSSVTYMHWYQQKSGTSPKRWIYDTSKLASGVPARFSGSGSGTSYSLTISSMEAEDAATYYCQQWTSNPLTFGAGTKLELK |
| 99.7% | -7.8% | -3.99% | 260 pM | 743 pM | 0.000481 s⁻¹ | 647000 M⁻¹ s⁻¹ | -1.18% | – | 97E6B2 (antibody, V domains shown) VH: QVQLQQPGAELVKPGASVKMSCKASGYTFTSYWITWVKQRPGQGLEWIGDIYPGSNNTYYNEKFKSKATLTVDTSSSTAYIQLSSLTSEDSAVYYCARLIMSLFDYSGQGTTLTVSS VL: ENVLTQSPANMSASPGEKVTMTCSVSSSVSYIHWYQQKSSTSPTLWIYDTSKLASGVPGRFSGSGSGNSYALTISSMEAEDVATYYCFQGSAYPLTFGAGTKLELK |
